# Experimental data reported in patent publication US20250154231A1 (RQBIO COVID, published 2025).
# Read-outs that look alike come from different tables or passages of the source.
# B1: Omi03 (antibody, V domains shown)
# VH: EVQLVESGGGLIQPGGSLRLSCAASEIIVSRNYMSWVRQAPGKGLEWVSVIYSGGSTFYADSVKGRFTISRDNSKNTLYLQMNSLRAEDTAVYYCARDLDVVGGTDYWGQGTLVTVSS
# VL: not shown
# B2: Fab Beta-54 (Fab, V domains shown)
# VH: QVQLQESGPGLVKPSETLSLTCTVFGGSITSSNHYWVWIRQPPGKGLEWIGSMYYSGSTAYNPSLTNRVTISVDTSKNQFSLKLSSVTAADTAVYYCARQIGPKRPSQVADWFDPWGQGTLVTVSS
# VL: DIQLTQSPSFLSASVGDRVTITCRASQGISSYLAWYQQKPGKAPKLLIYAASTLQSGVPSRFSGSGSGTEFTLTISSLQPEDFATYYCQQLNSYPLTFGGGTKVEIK
# B3: Omi-32 Fab (Fab, V domains shown)
# VH: EVQLVESGGGVVQPGRSLRLSCAASGFTFSNYGMHWVRQAPGKGLEWVAVYWYDGGNKFYADSVKGRFTISRDNSKNTLYLQMNSLRVEDTAVYYCARDTAPPDYWGQGTLVTVSS
# VL: AIRMTQSPGTLSLSPGERATLSCRASQSISSSFLAWYQQKPGQAPRLLIYGASSRATGIPDRFSGSGSGTDFTLTISRLEPEDFAVYYCQQYGTSPRLTFGGGTKVDIK
# B4: Omi12 (antibody, V domains shown)
# VH: EVQLVESGPEVKKPGTSVKVSCKASGFSFSMSAMQWVRRARGQRLEWIGWIVPGSGNANYAQKFQERVTITRDESTNTGYMELSSLRSEDTAVYYCAAPHCNKTNCYDAFDIWGQGTMVTVSS
# VL: AIRMTQSPGTLSLSPGERATLSCRASQSVRSSYLAWYQQKPGQAPRLLIYGASTRATGIPDRFSGSGSGTDFILTINRLEPEDLAVYYCQQFGSSPWTFGQGTKVDIK
# B5: Omi-20 Fab (Fab, V domains shown)
# VH: EVQLVESGGGLVQPGGSLRLSCEASEITVSSNYMNWVRQAPGKGLEWVSVLFAGGTTYYADSVKGRFTISRDNSKNTLYLQMNTLRIEDTAIYYCARDLVAYGVDVWGQGTTVTVSS
# VL: AIQMTQSPSFLSASVGDRVTITCRASQGISGDLAWYQQKPGKAPKLLIYAASTLQSGVPSRFSGSGSGTEFTLTISSLQPEDFATYYCQHLNSYPLTFGGGTKVEIK
# B6: Omi20 (antibody, V domains shown)
# VH: B5 VH
# VL: B5 VL
# B7: Omi31 (antibody, V domains shown)
# VH: EVQLVQSGAEVKKPGSSVKVSCKASGGTFSSYGISWVRQAPGLGLEWMGGVIPILSAKHYAQRFQGRVTITADKSTGTAYMELSSLRSEDTAVYYCARDILHHDDLWGRFYYDGMDVWGQGTTVTVSS
# VL: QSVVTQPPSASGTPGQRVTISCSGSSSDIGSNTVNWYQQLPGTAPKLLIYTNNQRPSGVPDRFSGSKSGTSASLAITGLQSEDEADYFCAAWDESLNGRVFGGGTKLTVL
# B8: Omi36 (antibody, V domains shown)
# VH: EVQLVESGGGVVQPGGSLRLSCAASGIIVSANYMTWVRQAPGKGLEWVSVIYPGGSTFYADSVKGRFTISRDNSKNTLYLQMNSLRVEDSAVYYCARDLELAGFNDYWGQGTLVTVSS
# VL: DIVMTQSPGTLSLSPGERATLSCRTSQSVSSNYLAWYQQKPGQAPRLLIYGASSRATGIPDRFSGSGSGTDFTLTISRLEPEDFAVYYCQQFGSSPRYTFGQGTKVEIK
# B9: Omi-18 Fab (Fab, V domains shown)
# VH: QVQLVESGGGLIQPGGSLRLSCAASGITVSSNYMTWVRQAPGKGLEWVSLLYAGGSAFYADSVKGRFTISRDNSKNTLYLLMNSLRVGDTAVYYCARDLQVYGMDVWGQGTTVTVSS
# VL: SYELTQPPSVSVAPGQTARITCGGNNDGAKSVHWYQQKPGQAPVLVVYDDSDRPSGIPERFSGSNSGNTATLTITRIEAGDEADYYCQVWDSSRDHVFGTGTKVTVL
# B10: Beta-27 Fab (Fab, V domains shown)
# VH: EVQLLESGGGLVQPGGSLRLSCAASGLTVRSNYMNWVRQAPGKGLEWVSLIYSGGSTFYADSVKGRFTISRHDSKNTLYLQMNSLRAEDTAVYYCARDLVVYGMDVWGQGTTVTVSS
# VL: DIQMTQSPGTLSLSPGERATLSCRASQSVSSSSLAWYQQKHGQAPRLLIYGTSSRATGIPDRFSGSGSGTDFTLTISGLEPEDFAVYYCQQYGSSPLFGGGTKVEIK
# B11: Omi-42 Fab (Fab, V domains shown)
# VH: EVQLLETGGGLVQPGRSLRLSCAASGFPFDDYAIHWVRLAPGKGLEWVSSISWDSGSIGYADSVKGRFTISRDNAKNSLYLQMNSLRAEDTALYYCAKGAFPGYSSGWYYGLDVWGQGATVTVSS
# VL: QSVVTQPPSASGSLGQSVTISCTGTSSDVGGYNYVSWYQQHPGKAPKLMIFEVSKRPSGVPDRFSGSKSGNTASLTVSGLQAEDEADYYCSSYAGNKGVFGGGTKLTVL
# B12: Omi06 (antibody, V domains shown)
# VH: EVQLLESGPGLVKPSETLSLTCTVSGGSISRYSWSWIRQPAGRGLEWIGRMYSSGGTNYNPSLESRVTMSLDTSKKQFSLKLSSVTAADTAVYYCAAASIDQVWGTYRDAFDIWGQGTMVTVSS
# VL: AIRMTQSPSSLAASVGDRVTISCRAGQSISSFLHWYQQKVGKAPKLLIYDASSLQSGVPSRFSGSGSGTDFTLTISSLQPEDFAAYYCQQSYENPLTFGGGTKVDIK
# B13: Omi-9 Fab (Fab, V domains shown)
# VH: QVQLVESGGGVVQPGRSLRLSCAASGFTFRTYAVHWVRQAPGKGPEWVAVISYDGSNKYYADSVKGRFTLSRDTSKNTLYLQMNSLRAEDTAVYYCASRGDTVTTGDAFDIWGQGTMVTVSS
# VL: SYELTQPPSVSVSPGQTARITCSGDALPKQYTYWYQQKPGQPPVLVIYKDSERPSGIPERFSGSSSGTTVTLTISGVQAEDEADYYCQSTDSSATYPGNVVFGGGTKLTVL
# B14: Omi09 (antibody, V domains shown)
# VH: B13 VH
# VL: B13 VL
# How the values were obtained:
# [1] = target: T1, Omicron BA.2 RBD (SARS-CoV-2, UniProt P0DTC2 333-528)
# [2] = target: T1, Omicron BA.2 RBD; remark: listed apart in the source
# [3] = target: T1, Omicron BA.2 RBD; remark: listed apart in the source
# [4] = target: T1, Omicron BA.2 RBD; remark: listed apart in the source
# [5] = target: T1, Omicron BA.2 RBD; remark: listed apart in the source
# [6] = target: T1, Omicron BA.2 RBD; remark: listed apart in the source
# [7] = target: T2, Omicron BA.2.12.1 RBD (SARS-CoV-2, UniProt P0DTC2 333-528)
# [8] = target: T1, Omicron BA.2 RBD; remark: listed apart in the source
# [9] = target: T3, Omicron BA.1 RBD (SARS-CoV-2, UniProt P0DTC2 333-528); experiment: ELISA
# T3 construct: domain: RBD
# [10] = target: T1, Omicron BA.2 RBD; experiment: SPR, single injection of RBD over the IgG
# [11] = target: T1, Omicron BA.2 RBD; remark: listed apart in the source
# [12] = target: T2, Omicron BA.2.12.1 RBD; experiment: crystal structure of the ternary complex, 2.38 A
# [13] = target: T1, Omicron BA.2 RBD; remark: listed apart in the source
# [14] = target: T2, Omicron BA.2.12.1 RBD; remark: listed apart in the source
# [15] = target: T1, Omicron BA.2 RBD; remark: listed apart in the source
# [16] = target: T3, Omicron BA.1 RBD; experiment: crystal structure of the complex
binder,measurement,setting,value
B1,Kd,[1],4.4 nM
same,T1/2,[1],2.9 min
B2,Kd,[2],44 nM
same,T1/2,[2],2.3 min
same,koff,[2],0.005 s⁻¹
same,kon,[2],110000 M⁻¹ s⁻¹
B3,Kd,[3],5.9 nM
same,T1/2,[3],71 min
same,koff,[3],0.00016 s⁻¹
same,kon,[3],27000 M⁻¹ s⁻¹
B4,Kd,[4],0.13 nM
same,T1/2,[4],20 min
same,koff,[4],0.00058 s⁻¹
same,kon,[4],4.3e+06 M⁻¹ s⁻¹
B5,Kd,[5],138 nM
same,T1/2,[5],3.2 min
same,koff,[5],0.0036 s⁻¹
same,kon,[5],26000 M⁻¹ s⁻¹
B6,Kd,[6],2.4 nM
same,T1/2,[6],5.6 min
same,koff,[6],0.0021 s⁻¹
same,kon,[6],870000 M⁻¹ s⁻¹
B7,Kd,[7],4.1 nM
same,T1/2,[7],0.733 min
same,koff,[7],0.016 s⁻¹
same,kon,[7],3.8e+06 M⁻¹ s⁻¹
same,Kd,[8],0.0032 nM
same,T1/2,[8],366 min
same,koff,[8],3.1e-05 s⁻¹
same,kon,[8],9.8e+06 M⁻¹ s⁻¹
B8,binding result,[9],binds
same,binding result,[10],binds
B9,Kd,[11],4.3 nM
same,T1/2,[11],20 min
same,koff,[11],0.00057 s⁻¹
same,kon,[11],130000 M⁻¹ s⁻¹
B10,binding result,[12],binds
B11,Kd,[13],0.99 nM
same,T1/2,[13],131 min
same,koff,[13],8.8e-05 s⁻¹
same,kon,[13],89000 M⁻¹ s⁻¹
B12,Kd,[14],19 nM
same,Kd,[15],1.3 nM
same,T1/2,[15],0.983 min
same,koff,[15],0.012 s⁻¹
same,kon,[15],9e+06 M⁻¹ s⁻¹
B13,binding result,[16],binds
B14,binding result,[9],binds
